Data taken from IntAct's records for PubMed 23532844.

B1: Jouberin (Homo sapiens), Q8N157 (parent)
chain: MPTAESEAKVKTKVRFEELLKTHSDLMREKKKLKKKLVRSEENISPDTIRSNLHYMKETTSDDPDTIRSNLPHIKETTSDDVSAANTNNLKKSTRVTKNKLRNTQLATENPNGDASVEEDKQGKPNKKVIKTVPQLTTQDLKPETPENKVDSTHQKTHTKPQPGVDHQKSEKANEGREETDLEEDEELMQAYQCHVTEEMAKEIKRKIRKKLKEQLTYFPSDTLFHDDKLSSEKRKKKKEVPVFSKAETSTLTISGDTVEGEQKKESSVRSVSSDSHQDDEISSMEQSTEDSMQDDTKPKPKKTKKKTKAVADNNEDVDGDGVHEITSRDSPVYPKCLLDDDLVLGVYIHRTDRLKSDFMISHPMVKIHVVDEHTGQYVKKDDSGRPVSSYYEKENVDYILPIMTQPYDFKQLKSRLPEWEEQIVFNENFPYLLRGSDESPKVILFFEILDFLSVDEIKNNSEVQNQECGFRKIAWAFLKLLGANGNANINSKLRLQLYYPPTKPRSPLSVVEAFEWWSKCPRNHYPSTLYVTVRGLKVPDCIKPSYRSMMALQEEKGKPVHCERHHESSSVDTEPGLEESKEVIKWKRLPGQACRIPNKHLFSLNAGERGCFCLDFSHNGRILAAACASRDGYPIILYEIPSGRFMRELCGHLNIIYDLSWSKDDHYILTSSSDGTARIWKNEINNTNTFRVLPHPSFVYTAKFHPAVRELVVTGCYDSMIRIWKVEMREDSAILVRQFDVHKSFINSLCFDTEGHHMYSGDCTGVIVVWNTYVKINDLEHSVHHWTINKEIKETEFKGIPISYLEIHPNGKRLLIHTKDSTLRIMDLRILVARKFVGAANYREKIHSTLTPCGTFLFAGSEDGIVYVWNPETGEQVAMYSDLPFKSPIRDISYHPFENMVAFCAFGQNEPILLYIYDFHVAQQEAEMFKRYNGTFPLPGIHQSQDALCTCPKLPHQGSFQIDEFVHTESSSTKMQLVKQRLETVTEVIRSCAAKVNKNLSFTSPPAVSSQQSKLKQSNMLTAQEILHQFGFTQTGIISIERKPCNHQVDTAPTVVALYDYTANRSDELTIHRGDIIRVFFKDNEDWWYGSIGKGQEGYFPANHVASETLYQELPPEIKERSPPLSPEEKTKIEKSPAPQKQSINKNKSQDFRLGSESMTHSEMRKEQSHEDQGHIMDTRMRKNKQAGRKVTLIE
partner: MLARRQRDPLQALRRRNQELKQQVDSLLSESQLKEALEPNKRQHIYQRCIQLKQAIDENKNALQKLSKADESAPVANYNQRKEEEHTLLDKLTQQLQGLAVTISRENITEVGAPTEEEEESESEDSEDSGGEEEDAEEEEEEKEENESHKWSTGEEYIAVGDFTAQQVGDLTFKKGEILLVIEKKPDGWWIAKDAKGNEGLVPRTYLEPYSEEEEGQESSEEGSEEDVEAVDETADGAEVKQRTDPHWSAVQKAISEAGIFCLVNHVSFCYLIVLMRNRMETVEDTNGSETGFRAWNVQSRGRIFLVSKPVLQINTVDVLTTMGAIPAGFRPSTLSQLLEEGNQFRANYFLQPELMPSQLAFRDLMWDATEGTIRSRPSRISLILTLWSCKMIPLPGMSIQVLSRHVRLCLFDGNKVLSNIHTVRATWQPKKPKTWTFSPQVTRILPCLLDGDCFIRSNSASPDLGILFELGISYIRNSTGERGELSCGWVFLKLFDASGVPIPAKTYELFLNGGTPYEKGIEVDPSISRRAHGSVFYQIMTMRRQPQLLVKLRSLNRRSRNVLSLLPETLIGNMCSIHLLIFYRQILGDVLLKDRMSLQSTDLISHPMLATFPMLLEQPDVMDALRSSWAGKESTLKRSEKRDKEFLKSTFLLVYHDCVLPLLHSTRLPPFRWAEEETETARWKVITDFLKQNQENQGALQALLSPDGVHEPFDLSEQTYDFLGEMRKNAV
B2: Jouberin (Homo sapiens), Q8N157 (parent)
chain: B1 chain

Variants of: B1
Conditions: with nphp1_human NPHP1, O15259

| effect of a mutation on the interaction | Variant |
| --- | --- |
| disrupting interaction | V443D |

Variants of: B2
Conditions: with hap1_human HAP1, P54257
hap1_human HAP1, P54257, sequence (P54257 whole entry): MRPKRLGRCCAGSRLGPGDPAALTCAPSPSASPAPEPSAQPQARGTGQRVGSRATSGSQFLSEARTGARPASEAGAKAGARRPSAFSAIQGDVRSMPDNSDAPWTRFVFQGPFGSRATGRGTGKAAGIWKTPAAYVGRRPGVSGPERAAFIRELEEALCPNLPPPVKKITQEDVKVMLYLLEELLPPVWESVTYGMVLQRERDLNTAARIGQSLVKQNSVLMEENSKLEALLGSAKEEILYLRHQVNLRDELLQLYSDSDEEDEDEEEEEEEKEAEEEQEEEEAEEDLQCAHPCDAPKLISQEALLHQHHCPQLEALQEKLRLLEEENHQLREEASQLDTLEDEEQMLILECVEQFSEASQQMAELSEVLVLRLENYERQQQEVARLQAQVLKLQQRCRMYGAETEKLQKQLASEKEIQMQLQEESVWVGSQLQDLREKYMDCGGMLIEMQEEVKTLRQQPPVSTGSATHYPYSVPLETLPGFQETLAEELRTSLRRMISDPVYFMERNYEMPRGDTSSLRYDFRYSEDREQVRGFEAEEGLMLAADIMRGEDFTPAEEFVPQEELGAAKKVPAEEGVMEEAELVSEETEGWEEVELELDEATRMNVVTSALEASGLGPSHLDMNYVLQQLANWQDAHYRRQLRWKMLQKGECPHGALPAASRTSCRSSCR

| effect of a mutation on the interaction | Variant |
| --- | --- |
| decreasing interaction | V443D |
